Results published in the supplement of paper PMC9170038.

Test system: K4 kissing-loop RNA reporter
Assay: apparent KD of K4 kissing-loop reporter; higher = weaker reporter binding
Conditions: Eterna round: R107
Description: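 RNA-MaP round R107: designed RNA switches with theophylline, tryptophan, arginine or FMN aptamers are transcribed on-chip within common flanks. They are titrated with a labelled K4 kissing-loop RNA reporter in RNA-MaP buffer (100 mM Tris pH 7.5, 80 mM KCl, 4 mM MgCl2), without ligand or with the indicated ligand. Median apparent KD per design.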

[1] = input ligand: theophylline 20 uM
[2] = input ligand: tryptophan 2.4 mM
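Note: bound reporter read as fluorescence of individual clusters on recovered sequencing chips by microscopy, with normalized cluster intensities fitted with a binding model.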

Sequence | apparent KD of K4 kissing-loop reporter (input ligand: FMN 200 uM) [µM] | apparent KD of K4 kissing-loop reporter (input ligand: arginine 13.2 mM) [µM] | apparent KD of K4 kissing-loop reporter (input ligand: none) [µM] | apparent KD of K4 kissing-loop reporter [1] [µM] | apparent KD of K4 kissing-loop reporter [2] [µM]
GUGCAGUGAUGUUGCACGAGGAAAGACGAUACCAGCCGCAAAUGUGGCCCUUGGCAGCGUGGGCUAGCACAAAAUAUGCUAGUCU [Ricegeusat] | 0.131 | 0.113 | 0.119 | 0.0989 | 0.108
GUGCAGUGAUGUUGCACGAGGAAAGACGAUACCAGCCGUAAAUAAGGCCCUUGGCAGCGUAGGCUAGCAUAAAGUACGCUAGUCC [Enarines] | 0.11 | 0.105 | 0.109 | 0.101 | 0.0884
GUGCAGUGAUGUUGCACGAGGAAAGACGAUACCAGCCGUAAAUAAGGCCCUUGGCAGCGUAGGCUAGCAUAAAGUAUGCCAGUCU [Geleerra] | 0.117 | 0.112 | 0.121 | 0.113 | 0.0965
GUGCAGUGAUGUUGCACGAGGAAAGACGAUACCAGCCGUAAAUAAGGCCCUUGGCAGCGUAGGCUAGCAUAAGGUAUGCUAGUCC [Atesermace] | 0.117 | 0.109 | 0.108 | 0.0955 | 0.1
GUGCGGCUAGUGAUGUUGGUUGUGUGGGAAGGAGCGCAGAUACAUGCAGGUAGGUCGCCCACACCUCUGAAAGGAGGCUAAUUCA [KL-SSArg-A15] | 0.418 | 0.33 | 0.411 | 0.325 | 0.35
GUGCGGUGGAGGCUACCGCUACUCUGAGAAGGAGCGCAGAAGACUGCAGGUAGGUCGCUUAGAGCUUGCAGUGAUGUUGCAAGUU [KL-SSArg-A18] | 0.134 | 0.135 | 0.183 | 0.156 | 0.176
GUGGGCUCGGGAGGAUAUGAGUCUAGUGAUGUUAGGCGGUCCAUGCGCGUGGCGCGUUAUGCCCUUUUAGAAGGCCCGAGCCCUC [#2 Exclusion - FMN B Attempt #24 (HarryS)] | 0.0998 | 0.0688 | 0.0901 | 0.0864 | 0.0853
GUGUAGAAGUGAGGAUAUCGAUUUAAGAAUAAGCAGUGAUGUUGCAAGCAGGAGGAAUAAGAUUAACGAGAAGGCGUGGAUAUAG [FMN B Exclusion; Euphoria Solution] | 0.104 | 0.11 | 0.125 | 0.141 | 0.0991
GUGUGACUAGUGAUGUUGGUUGCGUGGGAAGGAGCGCAGUAAAAUGCAGGUAGGUCGCCCGUAUCUCUGAUAAAAGAUUAAUUCA [KL-SSArg-A10] | 0.181 | 0.128 | 0.158 | 0.137 | 0.153
GUGUGUGUCGGAGGAUAUGCGGUGGGUGUGGGCGGAUUAGUGAUGUUGGUUGUGGUGGUGGUGGGUGUAGAAGGUUGGUGUGUGU [RHig 3/7 C] | 0.71 | 0.35 | 0.738 | 0.4 | 0.444
GUUACGCAUGGAAGGAGCGCACUCCGGUUGAUCGACACAGUGAUGUUGUGGUUCAUUCGAAUGCAGGUAGGUCGCCAUGUGUAAC [Ex Arginine B K4 15] | 0.808 | 0.593 | 0.847 | 0.886 | 0.804
GUUACGCAUGGAAGGAGCGCAGGCUCAACAAAUAGCUCAGUGAUGUUGAGCAUAUUAAAACUGCAGGUAGGUCGCCAUGUGUAAC [Ex Arginine B K4 23] | 0.651 | 0.547 | 0.657 | 0.671 | 0.588
GUUACGCAUGGAAGGAGCGCUCUCCGGUUGAUUGACACAGUGAUGUUGUGAUUCUACCGUAAGCAGGUAGGUCGCCAUGUGUAAC [Ex Arginine B K4 13] | 0.95 | 0.809 | 1.21 | 1.05 | 0.921
GUUAUAUAAAUAAGAAAUAAAAUAAGGGAAGGAGCGCCGAGAAAGGCAGGUAGGUCGCCCAGUGAUGUUGGGAUUAAUUAAUUAG | 0.045 | 0.0337 | 0.0393 | 0.0439 | 0.0371
GUUGCAGCCCGUGAUACCAGCAUCGGUCGCCGGGUCCAGUGAUGUUGGGCUUGCGUUCUAUGCCCUUGGCAGCGCGGCCUGACAG [Qulaanar] | 0.415 | 0.104 | 0.174 | 0.393 | 0.415
GUUUCAGUGAUGUUGGAAGGCGAGCGGGAUACCAGCCAAGACUCAGGCCCUUGGCAGCCCACAUAUCCCACGUAGAUAGUAGCUC [Same State - Theophylline A (Freestyle 14)] | 0.161 | 0.116 | 0.133 | 0.153 | 0.137

Sequence | apparent KD of K4 kissing-loop reporter (input ligand: FMN 200 uM) [µM] | apparent KD of K4 kissing-loop reporter (input ligand: arginine 13.2 mM) [µM] | apparent KD of K4 kissing-loop reporter (input ligand: none) [µM] | apparent KD of K4 kissing-loop reporter [1] [µM] | apparent KD of K4 kissing-loop reporter [2] [µM]
GUUUUAUAAGAGGAUACCAGUACAAAUAAAGUACAUUAAUAGUAGAGUGAUGUUCUAAAGUACCCUUGGCAGCUUAGAUUAAGUU [ExTheophylB.E] | 0.147 | 0.236 | 0.17 | 0.252 | 0.116
UAAAUUAAGCUUUGCUGAUUAAUAAGCGAUACCAGCAAAUAAUGAUGCCCUUGGCAGCGUUAUAAUCUAGUGAUGUUAGAUUAGU [Not much to say about this one] | 0.0926 | 0.106 | 0.101 | 0.103 | 0.085
UAACCUGUAAACGAUACCAGUUGCAUGGAAACUUGGUACUAGCUAGUGAUGUUAGCAAGCAACCCUUGGCAGCGUCGCCUGACAG [theeternabot_sameState_KL_Theo_B_17] | 0.308 | 0.427 | 0.395 | 0.487 | 0.309
UAACGACUCGGAAGGAGCGCGGUUUUAAAAGACUAAGGCCGAGUGAUGUUCGGAGAAGUCCCGCAGGUAGGUCGCCGGGUUGUGG [Ceororedar] | 0.124 | 0.138 | 0.13 | 0.199 | 0.148
UAACGCCACUAAGAUACCAGACAUACAGAUCGGAUCUCCUAAAGAGAGUGAUGUUCUCUAGUCCCUUGGCAGCUUCUGGACUCCC [theeternabot_sameState_KL_Theo_B_9] | 0.296 | 0.356 | 0.406 | 0.396 | 0.291
UAAGAGGACCACUGCAAGAGUCCUCGAAUACGAGGACCGGUACGGCCGCCACUCGAUAAUUUGCAGUGAUGUUGCAAGUAAGAAU [BrourdMod 5 - Jieux - Same State Tryptophan A] | 0.115 | 0.167 | 0.13 | 0.177 | 0.0544
UAAGAUAUAAGGGAUACCAGCCAUAAGGAAAGUGUGAUGAGUGAUGUUCUGACAAGCCAAGGCCCUUGGCAGCUUUAAUAGCAUC [Theophylline B Same State; Euphoria Solution] | 0.303 | 0.198 | 0.471 | 0.263 | 0.235
UAAGCUCUGACGGCCGCCACUGCACGUGAAUCAGUGGUGGCUAACAUGAGUGAUGUUCAUGUAAGCAGGACCGGGUCAGAGCUAA [KL-XTryp-B14 #analogue] | 0.112 | 0.0897 | 0.0934 | 0.0936 | 0.109
UAAUAAUAAUGAUAAUAAUAAAGUGGUGGACGAGGACCGGUACGGCCGCCACUCGAAAAUGCAGUGAUGUUGUAAUACAAAUAAU [Exclusion - Tryptophan A (Freestyle 1)] | 0.11 | 0.203 | 0.137 | 0.2 | 0.0866
UAAUAUAAUCUGUCGUUUACAAUAUUUAGUCAGGAUAUCGUAUAUUCGAGAAGGGACACUAUCUAGUGAUGUUAGAUAUUUCUUU [JR_ExcFMNA_Sub014] | 0.0479 | 0.0781 | 0.0559 | 0.067 | 0.0519
UAAUAUACGAGUGAUGUUCGUUAUUUAUCAGAGGAUAUGCUUAAAUGCAGAAGGCUGUUUUUCUAAUUGAUAUUAAAUUUUUUUA [JR_Nu_ExcFMNA_Sub028] | 0.0772 | 0.0901 | 0.074 | 0.0897 | 0.0633
UAAUCCUAGUGAUAAUAAUCAAGUGGUGGACGAGGACCGGUACGGCCGCCACUCGAAAAUGCAGUGAUGUUGUAAUCCGGAUAAU [Exclusion - Tryptophan A (Freestyle 4)] | 0.627 | 0.701 | 0.878 | 0.771 | 0.581
UAAUCCUAGUGAUCCUUAUCAAGUGGUGGGCGAGGACCGGUACGGCCGCCACUCGAAUAUGCAGUGAUGUUGUAAUCCGGAUAAU [Exclusion - Tryptophan A (Freestyle 9)] | 0.568 | 0.741 | 0.919 | 0.75 | 0.44
UAAUUGCAGUGAUGUUGCAAAUGUCCUGACUAGGAUAUCAGGAAACUGAGAAGGAGUCCCUUCUAUUGCAACAAGAAGGAGGAUA [KL-SSFMN-A14] | 0.312 | 0.3 | 0.347 | 0.338 | 0.287
UAAUUUAUGUCUUUAAUAUAAUAAUCAGAUACCAGUGAUUAAUGACACCCUUGGCAGCUGUAUAGAGUGAUGUUCUUAUGCUUAA [JR_ExcTheophyA_Sub010] | 0.245 | 0.316 | 0.288 | 0.364 | 0.179
UACCCGUGCUACUCCAUCCAUGCCACACCGCGAGGACCGGUACGGCCGCCACUCGUCGGAAAGUGAUGUUUUCAAACAAAGUUGC | 0.151 | 0.0934 | 0.142 | 0.292 | 0.0769
